# Columns and labels:
# [1] = biological target: 1433g_human YWHAG (UniProt P61981)
# [2] = biological target: 1433b_human YWHAB (UniProt P31946)
# [3] = biological target: 1433z_human YWHAZ (UniProt P63104)
# [4] = biological target: 1433f_human YWHAH (UniProt Q04917)
# [5] = biological target: 1433t_human YWHAQ (UniProt P27348)
# [6] = biological target: 1433e_human YWHAE (UniProt P62258)
# Chain of UniProt P62258 (P62258 whole entry): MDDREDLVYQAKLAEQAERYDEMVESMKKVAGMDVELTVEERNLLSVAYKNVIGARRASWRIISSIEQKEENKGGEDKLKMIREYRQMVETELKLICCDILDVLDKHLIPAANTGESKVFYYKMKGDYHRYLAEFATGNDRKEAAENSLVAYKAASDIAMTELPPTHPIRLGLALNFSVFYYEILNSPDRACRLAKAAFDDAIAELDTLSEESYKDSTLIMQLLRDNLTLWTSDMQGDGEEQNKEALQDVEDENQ
# Chain of UniProt P63104 (P63104 whole entry): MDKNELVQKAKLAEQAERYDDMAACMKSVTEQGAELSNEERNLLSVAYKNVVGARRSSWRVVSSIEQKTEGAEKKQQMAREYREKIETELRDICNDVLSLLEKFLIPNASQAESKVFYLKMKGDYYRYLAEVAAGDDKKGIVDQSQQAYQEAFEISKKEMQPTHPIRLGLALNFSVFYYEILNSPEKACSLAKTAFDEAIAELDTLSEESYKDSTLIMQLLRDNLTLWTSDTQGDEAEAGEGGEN
# Chain of UniProt P27348 (P27348 whole entry): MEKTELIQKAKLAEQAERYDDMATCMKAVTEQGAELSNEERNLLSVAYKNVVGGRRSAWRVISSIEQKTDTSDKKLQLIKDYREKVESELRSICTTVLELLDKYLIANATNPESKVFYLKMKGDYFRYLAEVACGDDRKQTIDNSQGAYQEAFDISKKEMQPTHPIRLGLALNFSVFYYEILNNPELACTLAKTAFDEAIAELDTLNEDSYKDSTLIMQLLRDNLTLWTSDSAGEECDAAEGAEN
# Chain of UniProt P31946 (P31946 whole entry): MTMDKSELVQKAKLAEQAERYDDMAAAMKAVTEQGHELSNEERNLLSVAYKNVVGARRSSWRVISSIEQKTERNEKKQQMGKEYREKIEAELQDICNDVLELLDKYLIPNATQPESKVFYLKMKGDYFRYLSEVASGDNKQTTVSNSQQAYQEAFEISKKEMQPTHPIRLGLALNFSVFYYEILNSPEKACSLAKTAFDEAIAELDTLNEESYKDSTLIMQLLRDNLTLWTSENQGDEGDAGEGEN
# Chain of UniProt P61981 (P61981 whole entry): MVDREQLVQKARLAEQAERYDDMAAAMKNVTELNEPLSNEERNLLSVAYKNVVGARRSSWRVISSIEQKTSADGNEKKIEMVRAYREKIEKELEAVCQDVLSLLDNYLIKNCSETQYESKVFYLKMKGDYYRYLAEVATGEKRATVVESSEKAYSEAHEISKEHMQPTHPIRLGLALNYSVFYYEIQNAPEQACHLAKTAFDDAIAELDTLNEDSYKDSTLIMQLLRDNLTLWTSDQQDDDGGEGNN
# Chain of UniProt Q04917 (Q04917 whole entry): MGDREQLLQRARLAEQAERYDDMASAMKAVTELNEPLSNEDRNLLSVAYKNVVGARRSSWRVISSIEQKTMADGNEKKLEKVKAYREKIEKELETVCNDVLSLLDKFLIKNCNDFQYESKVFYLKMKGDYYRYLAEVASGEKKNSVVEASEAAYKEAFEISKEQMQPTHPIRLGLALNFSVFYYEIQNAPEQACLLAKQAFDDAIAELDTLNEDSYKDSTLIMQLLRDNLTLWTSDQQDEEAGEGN
substance,measurement,setting,value
"Spatacsin (Homo sapiens), Q96JI7 S1955A",effect of a mutation on the interaction,[1],decreasing interaction strength
same,effect of a mutation on the interaction,[2],decreasing interaction strength
same,effect of a mutation on the interaction,[3],decreasing interaction strength
same,effect of a mutation on the interaction,[4],decreasing interaction strength
same,effect of a mutation on the interaction,[5],decreasing interaction strength
same,effect of a mutation on the interaction,[6],with no effect
